The source of these data is paper PMC6077149 (Molecular Therapy. Methods & Clinical Development, 2018).

The target in data set [1] is Fc (huIgG1-Fc fused to the Avi tag) (human). The data set can be described thus: SEC. For orientation: In gel filtration, larger molecules generally elute earlier.
The target in data set [2] is DARPin 2B7 fused to the measles virus H protein (DARPin-H). The data set can be described thus: flow cytometry on cells.
Data set [3] addresses four DARPins (SD8, SK14, 2K19, 2B7) and the scFv Fab7. Briefly: flow cytometry on cells. (In general: In flow cytometry, cells or beads pass a laser one at a time.)
Data set [4] addresses DARPin SB4 fused to the measles virus H protein (DARPin-H). Briefly: flow cytometry on cells.
The data set “SEC” deals with the molecule itself. Briefly: SEC.

One may read the stoichiometry N as a count of units in the complex or per binding partner. The term Kd denotes the free concentration of one partner at which half of the binding sites on the other are occupied at equilibrium, for simple one-to-one binding. Read a high Kd as a looser complex.

Turning to “Fc (huIgG1-Fc fused to the Avi tag) (domain or fragment)”, the stoichiometry N in data set [1] turned out to be 2.

B1: GluA4-Fc (amino-terminal domain of GluA4 fused to huIgG1-Fc and an Avi tag) (Fc fusion)
chain: AFPSSVQIGGLFIRNTDQEYTAFRLAIFLHNTSPNASEAPFNLVPHVDNIETANSFAVTNAFCSQYSRGVFAIFGLYDKRSVHTLTSFCSALHISLITPSFPTEGESQFVLQLRPSLRGALLSLLDHYEWNCFVFLYDTDRGYSILQAIMEKAGQNGWHVSAICVENFNDVSYRQLLEELDRRQEKKFVIDCEIERLQNILEQIVSVGKHVKGYHYIIANLGFKDISLERFIHGGANVTGFQLVDFNTPMVTKLMDRWKKLDQREYPGSETPPKYTSALTYDGVLVMAETFRSLRRQKIDISRRGNAGDCLANPAAPWGQGIDMERTLKQVRIQGLTGNVQFDHYGRRVNYTMDVFELKSTGPRKVGYWNDMDKLVLIQD
modifications: biotin on the Avi tag in the biotinylated form (roughly 76% biotinylated)
In the case of B1, the Kd in data set [2] is 8.4 nM; in data set [3], 1.6 to 3.7 nM; in data set [4], 19 nM. Further, in “SEC”, the “stoichiometry N” value was 4.
